The source of these data is patent US20190300875A1 (University of California, published 2019).

The target of one assay is FLUC-CRY2 (Arabidopsis) (UniProt Q96524). Briefly: quantitative co-IP (dual-luciferase), anti-Flag beads, HEK293T cells, blue light 30 µmol m^-2 s^-1.
The target of the next assay is T1, Flag-hCRY1 (human, UniProt Q16526 1-586).
T1 construct: this is the CRY1 form; not shown: Flag tag
T1 sequence (looked up): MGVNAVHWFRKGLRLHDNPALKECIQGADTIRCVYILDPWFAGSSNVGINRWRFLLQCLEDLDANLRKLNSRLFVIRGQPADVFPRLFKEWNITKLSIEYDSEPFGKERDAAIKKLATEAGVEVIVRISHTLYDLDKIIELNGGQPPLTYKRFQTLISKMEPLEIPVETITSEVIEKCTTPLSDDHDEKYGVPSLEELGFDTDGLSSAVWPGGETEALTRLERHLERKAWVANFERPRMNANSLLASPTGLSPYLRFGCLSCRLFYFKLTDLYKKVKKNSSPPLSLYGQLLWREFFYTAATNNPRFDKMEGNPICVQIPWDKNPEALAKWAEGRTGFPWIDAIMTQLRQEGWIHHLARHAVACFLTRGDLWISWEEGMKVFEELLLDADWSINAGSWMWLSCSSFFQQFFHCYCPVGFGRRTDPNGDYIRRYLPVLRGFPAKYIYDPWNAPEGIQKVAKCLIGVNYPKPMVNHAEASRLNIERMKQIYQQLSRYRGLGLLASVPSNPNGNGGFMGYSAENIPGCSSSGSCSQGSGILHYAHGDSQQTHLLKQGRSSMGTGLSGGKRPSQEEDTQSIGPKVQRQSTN
The assay is described as follows: co-IP with anti-Flag beads, HEK293T cells (FIG. 11). As to the method: In FIG. 11, HEK293T cells coexpressing Flag-hCRY, Myc-hCRY and GFP-BIC1 or GFP were exposed to 100 μmol m⁻² s⁻¹ blue light for 2 hours (+) or kept in the dark (−). Anti-Flag antibody conjugated beads were used to perform the immunoprecipitations. Flag-hCRY (IP signal) and Myc-hCRY or GFP-BIC1 (co-IP signals) were detected by Flag and Myc or GFP antibody, respectively. […]

In assay [1] the target is T2, Arabidopsis cryptochrome 2 (CRY2) (Arabidopsis, UniProt Q96524 1-612).
T2 construct: also called AT1G04400
The assay is described as follows: summary of the examples.

For REN-CRY2, in the assay with FLUC-CRY2 (Arabidopsis), the Maximum Photodimerization (Dm, maximum Normalized Dimerization Ratio) is 4.7 and the Rate of Photodimerization (D1/2) is 1 min.

B1: GFP-BIC1 (other)
chain: MMNIDDTTSPMAHPIGPSQPPSDQTKQDPPSLPQEAASSVSADKKDLALLEEKPKQSQEEDRVDTGRERLKKHRREIAGRVWIPEIWGQEELLKDWIDCSTFDTCLVPAGISSARTALVEEARRAASASGGLHNRCLILR
notes: Expressed in HEK293T cells; not shown: GFP
For the molecule B1, the binding result with Flag-hCRY1 is “binds”.

B2: Blue-light Inhibitor of Cryptochromes 1 (BIC1) (other)
chain: B1 chain
notes: also called Arabidopsis BIC1; AT3G52740
For B2, the binding result in assay [1] is “binds”.

B3: Blue-light Inhibitor of Cryptochromes 2 (BIC2) (other)
chain: MKNTNLPEETKEPISPGSSHRKQNKTGTKTCFPETTVLSGRDRLKRHREEVAGKVPIPDSWGKEGLLMGWMDFSTFDAAFTSSQIVSARAALMADSGDDAGARGSRPQRLRVESSC
notes: also called Arabidopsis BIC2; AT3G44450
B3: in assay [1], the binding result is reported as “binds”.
